The text below walks through data of patent US20040087777A1 (NEURALAB, published 2004).

Common to all, as to test: rNET
The target in one test is T1, … analog, Residue 2 = N.
T1 peptide: DNEFRHDSGY

In the next test the target is T2, … analog, Residue 8 = Y.
T2 peptide: DAEFRHDYGY

For another test, the target named is T3, … analog, Residue 3 = C.
T3 peptide: DACFRHDSGY

For another test, the target named is T4, … analog, Residue 3 = I.
T4 peptide: DAIFRHDSGY

A further test addresses T5, … analog, Residue 2 = V.
T5 peptide: DVEFRHDSGY

The target in another test is T6, … analog, Residue 3 = R.
T6 peptide: DARFRHDSGY

In a further test the target is T7, … analog, Residue 3 = G.
T7 peptide: DAGFRHDSGY

The next test addresses T8, … analog, Residue 8 = L.
T8 peptide: DAEFRHDLGY

For a further test, the target named is T9, … analog, Residue 1 = E.
T9 peptide: EAEFRHDSGY

A further test addresses T10, … analog, Residue 8 = P.
T10 peptide: DAEFRHDPGY

A further test has as its target T11, … analog, Residue 5 = G.
T11 peptide: DAEFGHDSGY

In another test the target is T12, … analog, Residue 2 = L.
T12 peptide: DLEFRHDSGY

Another test deals with T13, … analog, Residue 8 = M.
T13 peptide: DAEFRHDMGY

The target in a further test is T14, … analog, Residue 2 = M.
T14 peptide: DMEFRHDSGY

The target in a further test is T15, … analog, Residue 2 = W.
T15 peptide: DWEFRHDSGY

A further test has as its target T16, … analog, Residue 3 = M.
T16 peptide: DAMFRHDSGY

The next test concerns the target T17, … analog, Residue 1 = S.
T17 peptide: SAEFRHDSGY

The target in a further test is T18, … analog, Residue 2 = G.
T18 peptide: DGEFRHDSGY
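Note: antibody binding measured against single-substituted peptide analogs, each epitope position replaced by every one of 19 non-native amino acids, compared with binding to the native Aβ peptide.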

Procedure for … analog, Residue 1 = E: (§1) The rNET epitope map assay provides information about the contribution of individual residues within the epitope to the overall binding activity of the antibody. rNET analysis uses synthesized systematic single substituted peptide analogs. Binding of an antibody being tested is determined against native peptide (native antigen) and against 19 alternative “single substituted” peptides, each peptide being substituted at a first position with one of 19 non-native amino acids for that position. A profile is generated reflecting the effect of substitution at that position with the various non-native residues. Profiles are likewise generated at successive positions along the antigenic peptide. The combined profile, or epitope map, (reflecting substitution at each position with all 19 non-native residues) can then be compared to a map similarly generated for a second antibody.
(§2) Antibodies were tested for binding against the native Aβ peptide [sequence] […] Residues 1-8 were systematically substituted with each of the 19 non-native residues for that position.
Procedure for … analog, Residue 1 = S: as §1, §2
Procedure for … analog, Residue 2 = G: as §1, §2
Procedure for … analog, Residue 2 = L: as §1, §2
Procedure for … analog, Residue 2 = M: as §1, §2
Procedure for … analog, Residue 2 = N: as §1, §2
Procedure for … analog, Residue 2 = V: as §1, §2
Procedure for … analog, Residue 2 = W: as §1, §2
Procedure for … analog, Residue 3 = C: as §1, §2
Procedure for … analog, Residue 3 = G: as §1, §2
Procedure for … analog, Residue 3 = I: as §1, §2
Procedure for … analog, Residue 3 = M: as §1, §2
Procedure for … analog, Residue 3 = R: as §1, §2
Procedure for … analog, Residue 5 = G: as §1, §2
Procedure for … analog, Residue 8 = L: as §1, §2
Procedure for … analog, Residue 8 = M: as §1, §2
Procedure for … analog, Residue 8 = P: as §1, §2
Procedure for … analog, Residue 8 = Y: as §1, §2

B1: murine monoclonal antibody 3D6 (antibody, mouse IgG2b, V domains shown)
VH: EVKLVESGGGLVKPGASLKLSCAASGFTFSNYGMSWVRQNSDKRLEWVASIRSGGGRTYYSDNVKGRFTISRENAKNTLYLQMSSLKSEDTALYYCVRYDHYSGSSDYWGQGTTVTVSS
VL: not shown
notes: also called mAb 3D6; m3D6
Consider B1, for which the OD came out at 0.525 OD with … analog, Residue 2 = N; 0.574 OD with … analog, Residue 8 = Y; 0.222 OD in the test with … analog, Residue 3 = C; 0.019 OD with … analog, Residue 3 = I; 0.55 OD in the test with … analog, Residue 2 = V; 0.015 OD in the test with … analog, Residue 3 = R. Also, the OD is 0.016 OD with … analog, Residue 3 = G; 0.57 OD with … analog, Residue 8 = L; 0.576 OD with … analog, Residue 1 = E; 0.574 OD in the test with … analog, Residue 8 = P; 0.485 OD with … analog, Residue 5 = G; 0.482 OD with … analog, Residue 2 = L. Moreover, the OD with … analog, Residue 8 = M came to 0.571 OD; in the test with … analog, Residue 2 = M it was 0.535 OD; in the test with … analog, Residue 2 = W, 0.553 OD; with … analog, Residue 3 = M, 0.019 OD; in the test with … analog, Residue 1 = S, 0.569 OD; with … analog, Residue 2 = G, 0.527 OD.
